The results in this text go back to the Human Domainome abundance scans (Beltran et al. 2025).

The labels stand for the following.
B1: Intersectin-2, residues 1129 to 1183; numbered along this chain, Q9NZM3 (parent)
chain: VCQVIAMYDYAANNEDELSFSKGQLINVMNKDDPDWWQGEINGVTGLFPSNYVKM

± gives the uncertainty stated by the source.

Variants of B1 are the subject of this data set. The experiment in a line: abundance fitness (aPCA) (normalised: wild type 0, dead -1); higher = more abundant; growth selection in yeast, the domain comes from the species named. The settings on record: Homo sapiens.
In the case of VCQVIAMYDYAANNEDELSFSKGQLINVMNKDDPDWWQGCINGVTGLFPSNYVKM, the abundance fitness was -0.037 ± 0.044. Take VCQVIAMYDYAANNEDELSFSKGQLINVMNKDDPDWWQGQINGVTGLFPSNYVKM: the abundance fitness was -0.114 ± 0.049.

Regarding VCQVIAMYDYAANNEDELSFSKGQLINVMNKDDPDWWQGPINGVTGLFPSNYVKM, the abundance fitness is -0.963 ± 0.14. With VCQVIAMYDYAANNEDELSFSKGQLINVMNKDDPDWWQGSINGVTGLFPSNYVKM, the abundance fitness is 0.003 ± 0.036. As for VCQVIAMYDYAANNEDELSFSKGQLINVMNKDDPDWWQGGINGVTGLFPSNYVKM, the figure is -0.157 ± 0.036; as for VCQVIAMYDYAANNEDELSFSKGQLINVMNKDDPDWWQGNINGVTGLFPSNYVKM, -0.143 ± 0.063; as for VCQVIAMYDYAANNEDELSFSKGQLINVMNKDDPDWWQGDINGVTGLFPSNYVKM, -0.045 ± 0.046.

As for VCQVIAMYDYAANNEDELSFSKGQLINVMNKDDPDWWQGHINGVTGLFPSNYVKM, the abundance fitness is -0.08 ± 0.052. As to VCQVIAMYDYAANNEDELSFSKGQLINVMNKDDPDWWQGKINGVTGLFPSNYVKM, the abundance fitness was -0.037 ± 0.06. Take VCQVIAMYDYAANNEDELSFSKGQLINVMNKDDPDWWQGRINGVTGLFPSNYVKM: the abundance fitness is -0.059 ± 0.04. Regarding VCQVIAMYDYAANNEDELSFSKGQLINVMNKDDPDWWQGFINGVTGLFPSNYVKM, the abundance fitness was -0.142 ± 0.056. For VCQVIAMYDYAANNEDELSFSKGQLINVMNKDDPDWWQGAINGVTGLFPSNYVKM the value was -0.055 ± 0.031. As for VCQVIAMYDYAANNEDELSFSKGQLINVMNKDDPDWWQGMINGVTGLFPSNYVKM, the figure is -0.08 ± 0.058. For VCQVIAMYDYAANNEDELSFSKGQLINVMNKDDPDWWSGEINGVTGLFPSNYVKM the value was -0.046 ± 0.036; for VCQVIAMYDYAANNEDELSFSKGQLINVMNKDDPDWWDGEINGVTGLFPSNYVKM, -0.024 ± 0.058; for VCQVIAMYDYAANNEDELSFSKGQLINVMNKDDPDWWCGEINGVTGLFPSNYVKM, -0.027 ± 0.066.

Regarding VCQVIAMYDYAANNEDELSFSKGQLINVMNKDDPDWWYGEINGVTGLFPSNYVKM, the abundance fitness was -0.012 ± 0.072.

In the case of VCQVIAMYDYAANNEDELSFSKGQLINVMNKDDPDWWTGEINGVTGLFPSNYVKM, the abundance fitness was -0.038 ± 0.034. For VCQVIAMYDYAANNEDELSFSKGQLINVMNKDDPDWWGGEINGVTGLFPSNYVKM the value was -0.05 ± 0.044; for VCQVIAMYDYAANNEDELSFSKGQLINVMNKDDPDWWRGEINGVTGLFPSNYVKM, -0.029 ± 0.031; for VCQVIAMYDYAANNEDELSFSKGQLINVMNKDDPDWWMGEINGVTGLFPSNYVKM, -0.074 ± 0.041.

Regarding VCQVIAMYDYAANNEDELSFSKGQLINVMNKDDPDWWNGEINGVTGLFPSNYVKM, the abundance fitness was -0.248 ± 0.073. As for VCQVIAMYDYAANNEDELSFSKGQLINVMNKDDPDWWVGEINGVTGLFPSNYVKM, the figure is -0.033 ± 0.039; as for VCQVIAMYDYAANNEDELSFSKGQLINVMNKDDPDWWFGEINGVTGLFPSNYVKM, -0.059 ± 0.063. With VCQVIAMYDYAANNEDELSFSKGQLINVMNKDDPDWWKGEINGVTGLFPSNYVKM, the abundance fitness was determined as 0.005 ± 0.053. For VCQVIAMYDYAANNEDELSFSKGQLINVMNKDDPDWWHGEINGVTGLFPSNYVKM the value was 0.04 ± 0.056. For VCQVIAMYDYAANNEDELSFSKGQLINVMNKDDPDWWLGEINGVTGLFPSNYVKM the value was -0.072 ± 0.029. Consider VCQVIAMYDYAANNEDELSFSKGQLINVMNKDDPDWWWGEINGVTGLFPSNYVKM, for which the abundance fitness is -0.276 ± 0.068. For VCQVIAMYDYAANNEDELSFSKGQLINVMNKDDPDWWIGEINGVTGLFPSNYVKM, the abundance fitness is 0.105 ± 0.06. Consider VCQVIAMYDYAANNEDELSFSKGQLINVMNKDDPDWWPGEINGVTGLFPSNYVKM, for which the abundance fitness is -0.654 ± 0.061.

On to VCQVIAMYDYAANNEDELSFSKGQLINVMNKDDPDWWEGEINGVTGLFPSNYVKM, for which the abundance fitness is -0.003 ± 0.055.

Regarding VCQVIAMYDYAANNEDELSFSKGQLINVMNKDDPDWWQIEINGVTGLFPSNYVKM, the abundance fitness was -0.942 ± 0.14.

On to VCQVIAMYDYAANNEDELSFSKGQLINVMNKDDPDWWQEEINGVTGLFPSNYVKM, for which the abundance fitness is -0.913 ± 0.098. As for VCQVIAMYDYAANNEDELSFSKGQLINVMNKDDPDWWQFEINGVTGLFPSNYVKM, the figure is -0.854 ± 0.29. As for VCQVIAMYDYAANNEDELSFSKGQLINVMNKDDPDWWQKEINGVTGLFPSNYVKM, the figure is -0.999 ± 0.091; as for VCQVIAMYDYAANNEDELSFSKGQLINVMNKDDPDWWQHEINGVTGLFPSNYVKM, -0.896 ± 0.3.

Regarding VCQVIAMYDYAANNEDELSFSKGQLINVMNKDDPDWWQVEINGVTGLFPSNYVKM, the abundance fitness is -1.02 ± 0.079. On to VCQVIAMYDYAANNEDELSFSKGQLINVMNKDDPDWWQREINGVTGLFPSNYVKM, for which the abundance fitness is -1.06 ± 0.073. As for VCQVIAMYDYAANNEDELSFSKGQLINVMNKDDPDWWQYEINGVTGLFPSNYVKM, the figure is -0.878 ± 0.24. Regarding VCQVIAMYDYAANNEDELSFSKGQLINVMNKDDPDWWQCEINGVTGLFPSNYVKM, the abundance fitness was -0.995 ± 0.12.

Regarding VCQVIAMYDYAANNEDELSFSKGQLINVMNKDDPDWWQTEINGVTGLFPSNYVKM, the abundance fitness is -0.89 ± 0.11. Turning to VCQVIAMYDYAANNEDELSFSKGQLINVMNKDDPDWWQNEINGVTGLFPSNYVKM, the abundance fitness was -0.831 ± 0.18. As for VCQVIAMYDYAANNEDELSFSKGQLINVMNKDDPDWWQQEINGVTGLFPSNYVKM, the figure is -0.992 ± 0.21; as for VCQVIAMYDYAANNEDELSFSKGQLINVMNKDDPDWWQDEINGVTGLFPSNYVKM, -0.726 ± 0.099. Regarding VCQVIAMYDYAANNEDELSFSKGQLINVMNKDDPDWWQSEINGVTGLFPSNYVKM, the abundance fitness was -0.937 ± 0.12. Take VCQVIAMYDYAANNEDELSFSKGQLINVMNKDDPDWWQPEINGVTGLFPSNYVKM: the abundance fitness is -0.864 ± 0.12. For VCQVIAMYDYAANNEDELSFSKGQLINVMNKDDPDWWQAEINGVTGLFPSNYVKM the value was -0.699 ± 0.06; for VCQVIAMYDYAANNEDELSFSKGQLINVMNKDDPDWWQWEINGVTGLFPSNYVKM, -1.18 ± 0.22.
